# Several values for one entry are separate records, joined by “and”; a condition that tells them apart may be missing. Identical values can stand only once.
# What was measured:
# [1] = molecular target: T1, human Gro-beta (human, UniProt P19875 35-107); assay: Biacore SPR, BE: mAb amine-coupled;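 note: analytes IL-8, Gro-b and ENA-78 flowed at defined concentrations over the antibody surface, buffer injection used for double referencing, kinetics fitted to a 1:1 binding model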
# T1 construct: also called Gro-β; hGROβ
# Description: (§1) For experiment designated BE, purified antibodies directly immobilized to the chip by amine coupling was used.
# (§2) Defined concentrations of each analyte (IL8, Gro-band ENA-78) are passed over the immobilized or captured antibody surface, a separate capture event is used for each analyte injection. After each injection of analyte the surface is regenerated by injection
# (§3) An injection of buffer is also injected over the antibody captured surface and this is used for double referencing. The data is analyzed using the analysis software inherent to the machine, using the 1:1 model of binding.
# [2] = molecular target: T2, human ENA-78 (human, UniProt P42830 37-114, limits assumed); assay: Biacore SPR, BE: mAb amine-coupled;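 note: analytes IL-8, Gro-b and ENA-78 flowed at defined concentrations over the antibody surface, buffer injection used for double referencing, kinetics fitted to a 1:1 binding model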
# T2 construct: also called hENA-78; CXCL5
# Description: as §1, §2, §3
# [3] = molecular target: T3, human IL-8 (human, UniProt P10145 28-99, limits assumed); assay: Biacore SPR, BE: mAb amine-coupled;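 note: analytes IL-8, Gro-b and ENA-78 flowed at defined concentrations over the antibody surface, buffer injection used for double referencing, kinetics fitted to a 1:1 binding model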
# T3 construct: also called hIL-8; hIL8
# Description: as §1, §2, §3
# [4] = molecular target: T1, human Gro-beta; assay: Biacore SPR, KL: anti-mouse Fc capture
# Description: (§4) Supernatant or purified antibody from parental mouse mAb is captured on the anti-mouse IgG-Fc surface. Defined concentrations of each analyte (IL8, Gro-band ENA-78) are passed over the immobilized or captured antibody surface, a separate capture event is used for each analyte injection. After each injection of analyte the surface is regenerated by injection
# as §3
# [5] = molecular target: T2, human ENA-78; assay: Biacore SPR, KL: anti-mouse Fc capture
# Description: as §4, §3
# [6] = molecular target: T3, human IL-8; assay: Biacore SPR, KL: anti-mouse Fc capture
# Description: as §4, §3
# [7] = molecular target: T4, human Gro-alpha (human, UniProt P09341 35-107); assay: TRFIA, chemokine coated on plate, biotinylated anti-mouse IgG and streptavidin-europium detection
# T4 construct: also called Gro-α; hGROα
# Description: (§5) Briefly, each antigen (human IL-8, Gro-alpha, Gro-beta, Gro-gamma, GCP-2, and ENA-78, and hIL-18 when used as negative control) is individually coated onto a 96-well immunofluorescent plate. The plates are then washed and blocked with a commercially available blocking solution. Blocking solution is emptied and samples containing the mAb are added into each well and incubated for 40 to 60 minutes (this allows the mAb to bind to the target chemokines). The plates are then washed again and a detection Ab is added to each well. […] The detection antibody is conjugated to either europium or biotin. Following another round of washing, to remove unbound detection Ab, a solution of streptavidin-europium was added to biotin detected assays. Streptavidin-europium binds to the biotin allowing for detection. After a final wash to remove unbound streptavidin-europium, or in the case of the humanized MAb assay after the europium conjugate secondary is washed, each well is filled with a chelating detergent solution to activate the europium producing fluorescence. The greater the fluorescence recorded is directly proportionate to the amount of detection Ab present in the well which is directly linked and proportionate to the amount of the chemokine binding mAb.
# [8] = molecular target: T1, human Gro-beta; assay: as above
# Description: as §5
# [9] = molecular target: T5, human Gro-gamma (human, UniProt P19876 35-107); assay: as above
# T5 construct: also called Gro-γ; CXCL3
# Description: as §5
# [10] = molecular target: T2, human ENA-78; assay: as above
# Description: as §5
# [11] = molecular target: T3, human IL-8; assay: as above
# Description: as §5
# [12] = molecular target: T6, hIL-18 (Homo sapiens, UniProt Q14116); assay: TRFIA, hIL-18 coated on plate, biotinylated anti-human IgG Fab2 reagent and streptavidin-europium detection
# T6 construct: Printed on the sheets: 'hIL-18 run as a negative control'; also called human IL-18
# Description: as §5
# [13] = molecular target: T4, human Gro-alpha; assay: TRFIA, chemokine coated on plate, biotinylated anti-human IgG Fab2 reagent and streptavidin-europium detection
# Description: as §5
# [14] = molecular target: T1, human Gro-beta; assay: as above
# Description: as §5
# [15] = molecular target: T5, human Gro-gamma; assay: as above
# Description: as §5
# [16] = molecular target: T2, human ENA-78; assay: as above
# Description: as §5
# [17] = molecular target: T7, human GCP-2 (human, UniProt P80162 38-114, limits assumed); assay: as above
# T7 construct: also called hGCP-2; CXCL6
# Description: as §5
# [18] = molecular target: T3, human IL-8; assay: as above
# Description: as §5
# [19] = molecular target: T1, human Gro-beta; assay: Biacore SPR, BE: mAb amine-coupled; BE: mAb amine-coupled;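 for Kd: analytes IL-8, Gro-b and ENA-78 flowed at defined concentrations over the antibody surface, buffer injection used for double referencing, kinetics fitted to a 1:1 binding model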
# Description: as §1, §2, §3
# [20] = molecular target: T1, human Gro-beta; assay: Biacore SPR, KL: anti-mouse Fc capture; KL: anti-mouse Fc capture
# Description: as §4, §3
# [21] = molecular target: T4, human Gro-alpha; assay: TRFIA, chemokine coated on plate, europium anti-human IgG detection; antibody concentration not given
# [22] = molecular target: T5, human Gro-gamma; assay: as above
# Description: as §5
# [23] = molecular target: T7, human GCP-2; assay: as above
# Description: as §5
# [24] = molecular target: T2, human ENA-78; assay: Biacore SPR, Protein A capture;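 note: purified antibody captured on Protein A immobilised on a CM5 chip, chemokine analytes flowed over at defined concentrations, buffer injection for double referencing, kinetics fitted with a 1:1 binding model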
# Excerpt: (§6) A Protein A capture method was used to generate kinetics for the humanised and chimeric constructs as follows:
# (§7) Protein A is immobilised on a CM5 chip by primary amine coupling in accordance with the manufactures instructions. Purified humanised or chimeric antibody is captured on the Protein A surface. After capture defined concentrations of each analyte (IL8, Gro-β and ENA-78) are passed over the antibody captured surface, a separate capture event is used for each analyte injection. […] An injection of buffer is also injected over the antibody captured surface and this is used for double referencing. The data is analysed using the analysis software inherent to the machine, using the 1:1 model of binding.
# [25] = molecular target: T3, human IL-8; assay: Biacore SPR, Protein A capture;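 note: purified antibody captured on Protein A immobilised on a CM5 chip, chemokine analytes flowed over at defined concentrations, buffer injection for double referencing, kinetics fitted with a 1:1 binding model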
# Excerpt: as §6, §7
Binder,Kd [1] [nM],kon [1] [M⁻¹ s⁻¹],Kd [2] [nM],koff [2] [s⁻¹],kon [2] [M⁻¹ s⁻¹],Kd [3] [nM],koff [3] [s⁻¹],kon [3] [M⁻¹ s⁻¹],Kd [5] [nM],koff [5] [s⁻¹],kon [5] [M⁻¹ s⁻¹],Kd [6] [nM],koff [6] [s⁻¹],kon [6] [M⁻¹ s⁻¹],binding result [21],binding result [22],binding result [23],further results
"Chimera Antibody (HcLc) made from 656.35 (antibody, human IgG1, kappa, V domains shown, also called the Chimera Antibody; chimera (HcLc)) VH: QVQLQQSGAELVRPGTSVTISCKASGYTFTNYWIVWVKQRPGHGLEWIGDLYSGGGYTFYSENFKGKATLTADTSSSTAYMHLISLTSEDSAVYFCARSGYDRTWFAHWGQGSLVTVSS VL: DIKMTQSPSSMSASLGERVTITCQASQDIESYLSWYQQKPWKSPKTLIYYATRLADGVPSRFSGSGSGQDYSLTISSLESDDTATYYCLQHGESPPTFGAGTKLELKR",–,–,–,–,–,–,–,–,–,–,–,–,–,–,–,–,–,binding result [12]: no binding (tested: 1000 ng/ml); EC50 (read off the curve) [13]: ~50 ng/mL; EC50 (read off the curve) [14]: ~40 ng/mL; EC50 (read off the curve) [15]: ~40 ng/mL; EC50 (read off the curve) [16]: ~40 ng/mL; EC50 (read off the curve) [17]: ~40 ng/mL; EC50 (read off the curve) [18]: ~70 ng/mL
"humanized penta-specific antibody construct H0M0 (antibody, human IgG1, kappa, V domains shown, H0 mature heavy chain with M0 mature light chain) VH: QVQLVQSGAEVKKPGASVKVSCKASGYTFTNYWIVWVRQAPGQGLEWMGDLYSGGGYTFYSENFKGRVTMTRDTSTSTVYMELSSLRSEDTAVYYCARSGYDRTWFAHWGQGTLVTVSS VL: EIVLTQSPATLSLSPGERATLSCQASQDIESYLSWYQQKPGQAPRLLIYYATRLADGIPARFSGSGSGTDFTLTISSLEPEDFAVYYCLQHGESPPTFGQGTKLEIKR",–,–,–,–,–,–,–,–,–,–,–,–,–,–,binds,binds,binds,–
"humanized penta-specific antibody construct H0L7 (antibody, human IgG1, kappa, V domains shown, H0 mature heavy chain with L7 mature light chain) VH: QVQLVQSGAEVKKPGASVKVSCKASGYTFTNYWIVWVRQAPGQGLEWMGDLYSGGGYTFYSENFKGRVTMTRDTSTSTVYMELSSLRSEDTAVYYCARSGYDRTWFAHWGQGTLVTVSS VL: DIQMTQSPSSLSASVGDRVTITCQASQDIESYLSWYQQKPGKAPKLLIYYATRLADGVPSRFSGSGSGTDFTLTISSLQPEDFATYYCLQHGESPPTFGQGTKLEIKR",–,–,–,–,–,–,–,–,–,–,–,–,–,–,binds,binds,binds,–
"humanized penta-specific antibody construct H0L8 (antibody, human IgG1, kappa, V domains shown, H0 mature heavy chain with L8 mature light chain) VH: QVQLVQSGAEVKKPGASVKVSCKASGYTFTNYWIVWVRQAPGQGLEWMGDLYSGGGYTFYSENFKGRVTMTRDTSTSTVYMELSSLRSEDTAVYYCARSGYDRTWFAHWGQGTLVTVSS VL: DIQMTQSPSSLSASVGDRVTITCQASQDIESYLSWYQQKPGKAPKLLIYYATRLADGVPSRFSGSGSGTDFTFTISSLQPEDIATYYCLQHGESPPTFGQGTKLEIKR",–,–,–,–,–,–,–,–,–,–,–,–,–,–,binds,binds,binds,Kd [24]: 0.1 nM and 0.0941 nM and 0.0912 nM and 0.0755 nM; koff [24]: 0.000288 s⁻¹ and 0.000266 s⁻¹ and 0.000269 s⁻¹ and 0.000248 s⁻¹; kon [24]: 2.88e+06 M⁻¹ s⁻¹ and 2.82e+06 M⁻¹ s⁻¹ and 2.95e+06 M⁻¹ s⁻¹ and 3.29e+06 M⁻¹ s⁻¹; Kd [25]: 0.188 nM and 0.143 nM and 0.175 nM and 0.152 nM; koff [25]: 0.00111 s⁻¹ (2×) and 0.00113 s⁻¹ and 0.00119 s⁻¹; kon [25]: 5.9e+06 M⁻¹ s⁻¹ and 7.89e+06 M⁻¹ s⁻¹ and 6.8e+06 M⁻¹ s⁻¹ and 7.3e+06 M⁻¹ s⁻¹

# Further lines, with some results ahead:
Kd [1] [nM],kon [1] [M⁻¹ s⁻¹],Kd [2] [nM],koff [2] [s⁻¹],kon [2] [M⁻¹ s⁻¹],Kd [3] [nM],koff [3] [s⁻¹],kon [3] [M⁻¹ s⁻¹],Kd [5] [nM],koff [5] [s⁻¹],kon [5] [M⁻¹ s⁻¹],Kd [6] [nM],koff [6] [s⁻¹],kon [6] [M⁻¹ s⁻¹],binding result [21],binding result [22],binding result [23],Binder,further results
0.111,1.32e+07,0.271,0.000796,2.94e+06,0.0839,0.000687,8.19e+06,1.74,0.00187,1.07e+06,0.964,0.00148,1.53e+06,–,–,–,"mouse monoclonal antibody 656.35 (antibody, IgG2a, V domains shown, Murine hybridoma mAb) VH: QVQLQQSGAELVRPGTSVTISCKASGYTFTNYWIVWVKQRPGHGLEWIGDLYSGGGYTFYSENFKGKATLTADTSSSTAYMHLISLTSEDSAVYFCARSGYDRTWFAHWGQGSLVTVSA VL: DIKMTQSPSSMSASLGERVTITCQASQDIESYLSWYQQKPWKSPKTLIYYATRLADGVPSRFSGSGSGQDYSLTISSLESDDTATYYCLQHGESPPTFGAGTKLELKR",koff [1]: 0.00146 s⁻¹; Kd [4]: 0.526 nM; koff [4]: 0.00201 s⁻¹; kon [4]: 3.82e+06 M⁻¹ s⁻¹; EC50 (read off the curve) [7]: ~30 ng/mL; EC50 (read off the curve) [8]: ~20 ng/mL; EC50 (read off the curve) [9]: ~20 ng/mL; EC50 (read off the curve) [10]: ~20 ng/mL; EC50 (read off the curve) [11]: ~30 ng/mL
< 0.00962,1.04e+06,10.1,0.00302,301000,0.69,0.000499,723000,9,0.00269,299000,5.89,0.00369,627000,–,–,–,"mouse monoclonal antibody 197.2 (antibody, IgG2a, V domains shown, Murine hybridoma mAb) VH: EFQLQQSGPELVKPGASVKISCKASGYSFTDYNMNWVKQSNGKSLEWIGVINPKYGTTSYNQKFKGKATLTVDQSSNTAYMQLSSLTSEDSAVYHCARGMGLLFGMDYWGQGTSVTVSS VL: DIVMTQSPSSLSVSAGEKVTMSCKSSQSLLNSGNQKNYLAWYQQKPGQPPKLLIYGASTRKSGVPDRFTGSGSGTDFTLTISSVQAEDLAVYYCQNDHSFPCTFGGGTKLEIKR",koff [19]: < 1e-05 s⁻¹; Kd [20]: 0.639 nM; koff [20]: 0.000993 s⁻¹; kon [20]: 1.55e+06 M⁻¹ s⁻¹
0.0898,5.44e+06,0.0239,3.94e-06,165000,55.5,0.108,1.95e+06,0.616,0.000376,611000,4.8,0.00932,1.95e+06,–,–,–,"mouse monoclonal antibody 81.1 (antibody, IgG2a, V domains shown, Murine hybridoma mAb) VH: EVQLQQSGPELEKPGASVKISCKASGYSFTVYGMNWVRQSNGKSLEWIGNFDPYFSVTSYNQKFQDKATLTVDKSSSTAYMQLKNLTSEDSAVYFCARGSWETIFAYWGQGTLVTVSA VL: QAVVTQESALTTSPGETVTLTCRSSTGAVTTSNYANWVQEKPDHLFTGLIGGTNNRAPGVPARFSGSLIGDKAALTITGAQTEDEAIYFCALWYSNHVFGGGTKLTVLQ",koff [1]: 0.000489 s⁻¹; Kd [4]: 0.113 nM; koff [4]: 0.000312 s⁻¹; kon [4]: 2.76e+06 M⁻¹ s⁻¹
–,–,–,–,–,–,–,–,–,–,–,–,–,–,binds,binds,binds,"humanized penta-specific antibody construct H0L10 (antibody, human IgG1, kappa, V domains shown, H0 mature heavy chain with L10 mature light chain) VH: QVQLVQSGAEVKKPGASVKVSCKASGYTFTNYWIVWVRQAPGQGLEWMGDLYSGGGYTFYSENFKGRVTMTRDTSTSTVYMELSSLRSEDTAVYYCARSGYDRTWFAHWGQGTLVTVSS VL: DIQMTQSPSSLSASVGDRVTITCQASQDIESYLSWYQQKPGKAPKLLIYYATRLADGVPSRFSGSGSGQDYTLTISSLQPEDFATYYCLQHGESPPTFGQGTKLEIKR",Kd [24]: 0.0899 nM and 0.0722 nM and 0.0742 nM and 0.0613 nM
